Measured values published in publication PMC4359974.

Biological target: Sulfolobus solfataricus heat shock 20.1 (Sulfolobus solfataricus P2)
Assay: SEC

Substance: Sulfolobus solfataricus heat shock 20.1 (natural protein)
- stoichiometry N: 24 subunits
